Source: PMC11143374, “Conformations of Bcs1L undergoing ATP hydrolysis suggest a concerted translocation mechanism for folded iron-sulfur protein substrate” (Nature Communications, 2024)

T1: mouse Bcs1L (mBcs1L), wild type, hexahistidine-tagged (mouse, UniProt Q9CZP5 1-418)
T1 sequence (looked up): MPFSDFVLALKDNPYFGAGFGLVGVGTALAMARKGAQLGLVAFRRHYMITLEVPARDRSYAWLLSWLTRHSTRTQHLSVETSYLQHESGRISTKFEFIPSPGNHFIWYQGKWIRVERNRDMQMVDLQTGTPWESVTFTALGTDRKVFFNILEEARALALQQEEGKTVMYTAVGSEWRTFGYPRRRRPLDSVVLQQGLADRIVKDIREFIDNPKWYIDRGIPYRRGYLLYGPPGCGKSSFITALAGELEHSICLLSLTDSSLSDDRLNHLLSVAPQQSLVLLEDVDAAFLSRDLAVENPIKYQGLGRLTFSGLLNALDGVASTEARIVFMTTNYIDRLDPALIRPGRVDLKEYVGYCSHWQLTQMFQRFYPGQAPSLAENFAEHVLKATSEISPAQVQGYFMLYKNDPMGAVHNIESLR


How the values were obtained:
[1] = molecular target: AAA domain of mBcs1L (ΔNmBcs1L, residues 151-420) (mouse) (UniProt Q9CZP5); assay: native gel or EMSA; BN-PAGE of ΔNmBcs1L with AMP-PNP or ATPγS
[2] = molecular target: T1, mouse Bcs1L (mBcs1L), wild type, …; assay: cell-based or functional assay

stoichiometry N [1]	ATPase activity of mBcs1L (malachite green, 37 °C, 15 min) at different ISP-ED:mBcs1L heptamer molar ratios; maximal stimulation at a ratio of 3-4, no further change at higher ratios [2] [% stimulation]	Molecule
7	–	AAA domain of mBcs1L (ΔNmBcs1L, residues 151-420) (from UniProt Q9CZP5 151-418) (domain or fragment)
–	~50	extrinsic domain of the Rieske iron-sulfur protein (ISP-ED), bovine (domain or fragment, UniProt P13272 146-274, looked up) VLAMSKIEIKLSDIPEGKNMAFKWRGKPLFVRHRTKKEIDQEAAVEVSQLRDPQHDLERVKKPEWVILIGVCTHLGCVPIANAGDFGGYYCPCHGSHYDASGRIRKGPAPLNLEVPSYEFTSDDMVIVG
